In patent US9416162B2, “Peptides having reduced toxicity that stimulate cholesterol efflux” (The Regents of the University of California, priority 2013, dated 2016):
Non-standard residues stand in square brackets, D forms with d. No end group written: not given here. Cit = NC(=O)NCCC[C@H](N)C(=O)O

Legend:
C57Bl/6 mice = experiment: Safety and TG elevating effects after IP injection in C57Bl/6 mice (plasma CPK, ALT, AST, lipids); type: in vivo
Experimental: The high-dose cytotoxic response of ATI-5261 observed in rat, rabbit and cynomolgus monkey is additionally recapitulated in mice (FIG. 4). Male chow-fed C57bl/6 mice were injected intraperitonelly (IP) with 30 or 300 mg/kg of lipid-fee ATI-5261. Blood was collected via the retro-orbital plexus 4 h after peptide injection and plasma subsequently obtained for measurement of CPK (Panel A) and ALT and AST activities (Panel B, ALT left bars; AST, right bars). Values are means±SD, n=4 mice per group.
This example illustrates that aromatic phenylalanine residues associated with the non-polar surface of ATI-5261 contributed to the majority of the peptide toxicity (FIG. 5). […] Blood was collected via retro-orbital plexus 4 h after injection for isolation of plasma. Levels of plasma CPK (Panel A), ALT (panel B) and AST (Panel C) were determined as described in FIG. 1. Values are means±SD, n=4 mice per group.
All values (mg/dl) are means±SD, n=4, determined at 4 and 6 h post treatment with peptide.

cynomolgus monkeys = experiment: IV infusion toxicity in cynomolgus monkeys (ALT, AST, CPK, bilirubin); type: in vivo, cynomolgus monkey
Experimental: Male (upper panel) and female lower panel) cynomolgus monkeys were administered ATI-5261 at a fixed dose of 100 mg/kg by IV infusion (60 min) every 96 hours for a total of 4 injections. Blood was collected 24 h post infusion and levels of plasma ALT, AST, creatine kinase (CPK), and total and indirect bilirubin were determined Values are expressed as a fold-increase vs. pre-dose levels.

[1] = test system: New Zealand White rabbits; experiment: High-dose IV bolus toxicity of ATI-5261 in rabbits (plasma ALT, AST, TG, unesterified cholesterol); type: in vivo, rabbit; conditions: male New Zealand White rabbits, single IV bolus 3, 30 or 300 mg/kg
Text: Peptides or peptidomimetics of the invention can be evaluated for toxicity using known assays. Examples of such assays are illustrated in the Examples section. Toxicity is typically assayed in a rat, rabbit, mouse, monkey or dog model. […] Safety chemistry panels including plasma alanine aminotransferase (ALT), aspartate amino transferase (AST), and creatine kinase (CK) can then be determined in the blood. The presence of elevated levels of these enzymes in the blood compared to control normal values is indicative of toxicity. A peptide of the invention is typically considered to be non-toxic or to have little toxicity, when the results using the highest dose, 300 mg/kg in this illustrative assay, are equivalent (fall within the standard deviation) of the values measured for the control animals that received vehicle alone, or are no more than 2 or 3 times background obtained with vehicle alone. […]
Cytotoxicity of an HDL mimetic peptide ATI-5261 at high doses was evaluated in rats and rabbits (FIG. 1). […]
For the experiments in FIG. 2, male chow-fed Wistar rats (Panels A and B) were administered ATI-5261 at doses of 3, 30, and 300 mg/kg as described in FIG. 1. Plasma triglyceride (TG, Panel A) and unesterified cholesterol (Panel B) concentrations were determined enzymatically at the times indicated. […]

SR-B1 = biological target: T1, SR-B1 (Rattus norvegicus, UniProt P97943); experiment: SR-B1 mediated cholesterol efflux from Fu5AH cells; type: cell-based; conditions: 50 μg peptide/ml serum-free medium
T1 construct: endogenous in cells; host or cells: Fu5AH cells
T1 sequence (P97943 1-509): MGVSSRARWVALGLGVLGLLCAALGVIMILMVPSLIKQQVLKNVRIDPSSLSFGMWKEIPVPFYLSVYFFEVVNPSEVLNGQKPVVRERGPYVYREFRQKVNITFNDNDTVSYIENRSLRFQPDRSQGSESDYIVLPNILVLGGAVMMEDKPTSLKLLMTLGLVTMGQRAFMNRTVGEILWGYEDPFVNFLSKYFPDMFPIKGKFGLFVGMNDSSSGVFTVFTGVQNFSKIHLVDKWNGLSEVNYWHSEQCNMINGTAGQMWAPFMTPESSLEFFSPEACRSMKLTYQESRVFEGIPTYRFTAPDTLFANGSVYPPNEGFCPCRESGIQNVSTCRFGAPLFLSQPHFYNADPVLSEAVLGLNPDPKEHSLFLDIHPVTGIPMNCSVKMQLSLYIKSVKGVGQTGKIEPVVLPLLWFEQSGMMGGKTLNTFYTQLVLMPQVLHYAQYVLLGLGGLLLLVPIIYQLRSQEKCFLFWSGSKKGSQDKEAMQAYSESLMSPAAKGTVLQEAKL
Experimental: To further evaluate potential anti-atherogenic mechanisms of CS6253, Fu5AH cells labeled with [3H]cholesterol were used in efflux experiments. The citrulline form of LeuATI-5261 (CS6253) lipidated with POPC was used as a cholesterol efflux acceptor at 50 μg peptide/ml serum-free medium. Panel A-Time-course for SR-B1 mediated cholesterol efflux from cells. […] Panel B—Comparison between CS6253 and ATI-5261 in mediating cellular cholesterol efflux via SRB1. [3H]cholesterol labeled Fu5AH cells were incubated with either lipid-free acceptors or acceptors formulated with POPC.

hamsters = experiment: Lipoprotein profile in hamsters after sc injection (ion mobility, 2D gel); type: in vivo, hamster
Experimental: This example employed peptide T5237-4 EVCit[…]it[…] (SEQ ID NO:2) (Cit=citrulline). […] Following removal of albumin by centrifugations plasma was injected and lipoproteins separated with gas-phase differential electrophoretic macromolecular mobility-based method (ion mobility, or IM) (Caulfield et al. Clin Chem 2008 54:8 1307-16). […] The panel in the upper right hand corner is derived from a 2D gel separation (size and charge separation).

[2] = hamsters, 10, 30 and 100 mg/kg sc, plasma 4 h, dose-response

For “ATI-5261: HDL mimetic peptide, parent peptide; triglyceride elevating and muscle toxic peptide used as positive control (EVRSKLEEWFAAFREFAEEFLARLKS) [reference compound]”, the “plasma TG, total and unesterified (free) cholesterol (FC)” value (C57Bl/6 mice; C57Bl/6 mice, 300 mg/kg, 4 and 6 h post treatment) was “marked increase”, the “cytotoxic/toxic response (plasma CPK, ALT, AST)” value (C57Bl/6 mice; male chow-fed C57Bl/6 mice, IP 300 mg/kg, plasma 4 h after injection) was “High levels of cytotoxic markers” and the “cytotoxic response (ALT, AST, CPK, bilirubin)” value (cynomolgus monkeys; 100 mg/kg IV infusion (60 min) every 96 hours, 4 injections, blood 24 h post infusion) was “induced a cytotoxic response”. The “plasma creatine kinase (CPK), fold-increase vs. pre-dose levels” value (cynomolgus monkeys; 100 mg/kg IV infusion, after the first infusion, male and female monkeys) was “marked increase”, the “cytotoxic response (plasma ALT and AST)” value [1] was “induced a cytotoxic response” and the “plasma triglycerides and cholesterol” value [1] was “increased plasma triglycerides and cholesterol”.
With “EVCitSKLEEWLAALCitELAEELLARLKS (SEQ ID NO:2) (EV[Cit]SKLEEWLAAL[Cit]ELAEELLARLKS) [CS6253, citrulline form of LeuATI-5261, R3,14→Citrulline, 26-mer]” the “SR-B1 mediated cholesterol efflux” value (SR-B1) was “relatively poor activity”, the “preβ-HDL (2D gel, apoA-I antibody)” value (hamsters; hamsters, 100 mg/kg sc, 1 h, 2 h, and 4 h) was “preβ-HDL increase” and the LDL (hamsters; [2]) was “LDL lowering”. For the same substance, the “small HDL” value (hamsters; [2]) was “small HDL increase”.
